The results in this text go back to patent US20240132578A1.

Common to all, as to assay: cell-based or functional assay
In assay [1] the target is HIV-1 Env of isolate 92TH021 (CRF01_AE) (HIV-1).
The target in assay [2] is HIV-1 Env of isolate 92UG037 (clade A pseudovirus) (HIV-1).
Assay [3] has as its target HIV-1 Env of isolate APV_13, clade B (HIV-1).
In assay [4] the target is HIV-1 Env of isolate JRCSF (Clade B) (HIV-1) (UniProt P20871).
In assay [5] the target is HIV-1 Env of isolate MGRM-A-013 (clade A pseudovirus) (HIV-1).
In assay [6] the target is HIV-1 Env of isolate MGRM-Chronic-B-001, clade B (HIV-1).
In assay [7] the target is HIV-1 Env of isolate MGRM-Chronic-B-003, clade B (HIV-1).
Assay [8] deals with HIV-1 Env of isolate MGRM-D-029 (clade D pseudovirus) (HIV-1).
Assay [9] has as its target HIV-1 Env of isolate THR0.18 (Acute), clade B (HIV-1).
For assay [10], the target named is HIV-1 Env of pseudovirus MGRM-G-011 (HIV-1).
Assay [11] addresses HIV-1 IAVI-C18 envelope (Env) on pseudovirus (HIV-1).
Assay [12] concerns the target HIV-1 envelope glycoprotein (Env) of isolate 93IN905 (HIV-1).
For assay [13], the target named is HIV-1 envelope glycoprotein (Env) of isolate LAVI_C3 (HIV-1).
Assay [14] deals with HIV-1 envelope glycoprotein (Env) of isolate MGRM-C-004 (HIV-1).
Assay [15] addresses HIV-1 envelope glycoprotein (Env) of isolate MGRM-C-009 (HIV-1).
Assay [16] has as its target HIV-1 envelope glycoprotein (Env) of isolate MGRM-C-014 (HIV-1).

1443_C16 (PG16) (TCN-116) (antibody), sequence (VH): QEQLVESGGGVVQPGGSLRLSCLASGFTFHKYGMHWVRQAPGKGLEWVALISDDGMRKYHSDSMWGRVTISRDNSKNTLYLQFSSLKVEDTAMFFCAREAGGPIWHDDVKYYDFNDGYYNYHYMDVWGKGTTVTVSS
1443_C16 (PG16) (TCN-116) (antibody), sequence (VL): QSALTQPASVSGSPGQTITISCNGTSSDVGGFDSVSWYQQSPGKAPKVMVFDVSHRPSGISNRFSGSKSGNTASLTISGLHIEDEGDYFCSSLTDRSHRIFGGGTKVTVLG

As for 4E10 (antibody), the results for the IC90 (neutralization of pseudovirus) in [1] and in [4] were 23.5 µg/mL and 44.1 µg/mL, respectively. In addition, the IC50 (µg/ml), pseudovirus neutralization in [2] was 8.84 µg/mL; in [3], 7.33 µg/mL; in [5] it was 1.46 µg/mL; in assay [6], 1.46 µg/mL; in assay [7], 3.5 µg/mL; in assay [9] it was 4.68 µg/mL. Also, the IC50 (µg/ml), pseudovirus neutralization in assay [10] is 1.44 µg/mL; in assay [12], 1.26 µg/mL; in assay [13], 2.85 µg/mL; in [14], 24.2 µg/mL; in assay [15], 0.56 µg/mL; in [16] it was 2.48 µg/mL. Moreover, in assay [8], the IC50, pseudovirus neutralization stood at 5.3 µg/mL. In addition, the neutralization IC50 in [11] was > 50 µg/mL.

Consider b12 (antibody), for which the IC90 (neutralization of pseudovirus) in assay [1] is > 50 µg/mL; in assay [4], 1.17 µg/mL. The IC50 (µg/ml), pseudovirus neutralization in assay [2] is > 50 µg/mL; in [3], > 50 µg/mL; in assay [5] it was 7.04 µg/mL; in assay [6], 0.75 µg/mL; in assay [7], > 50 µg/mL; in [9], 3.62 µg/mL. In addition, the IC50 (µg/ml), pseudovirus neutralization in [10] was > 50 µg/mL; in assay [12], 21.4 µg/mL; in assay [13] it was 0.94 µg/mL; in [14], 5.46 µg/mL; in assay [15], > 50 µg/mL; in assay [16], > 50 µg/mL. Besides, the IC50, pseudovirus neutralization in assay [8] was > 50 µg/mL. Besides, the neutralization IC50 in assay [11] is > 50 µg/mL.

For 1443_C16 (PG16) (TCN-116) (antibody), the IC90 (neutralization of pseudovirus) in [1] is 23.4 µg/mL; in assay [4] it was 0.013 µg/mL. The IC50 (µg/ml), pseudovirus neutralization in [2] was 0.01 µg/mL; in assay [3] it was > 50 µg/mL; in assay [5] it was 0.09 µg/mL; in assay [6] it was > 50 µg/mL; in assay [7] it was 0.19 µg/mL; in assay [9], 1.34 µg/mL. In addition, the IC50 (µg/ml), pseudovirus neutralization in assay [10] was 0.04 µg/mL; in [12] it was 0.25 µg/mL; in [13], 9.55 µg/mL; in assay [14] it was 5.09 µg/mL; in assay [15], > 50 µg/mL; in [16], > 50 µg/mL. Moreover, the IC50, pseudovirus neutralization in assay [8] is > 50 µg/mL. This substance also returned a neutralization IC50 in assay [11] of 0.0067 µg/mL.

As to 2G12 (antibody), the IC90 (neutralization of pseudovirus) in assay [1] was > 50 µg/mL; in [4], 5.38 µg/mL. Also, the IC50 (µg/ml), pseudovirus neutralization in assay [2] is 45.2 µg/mL; in assay [3] it was 9.24 µg/mL; in [5], > 50 µg/mL; in assay [6] it was 0.08 µg/mL; in assay [7] it was 0.06 µg/mL; in assay [9], > 50 µg/mL. Moreover, the IC50 (µg/ml), pseudovirus neutralization in [10], in assay [12], in assay [13], in assay [14], in assay [15] and in assay [16] was > 50 µg/mL throughout. For the same substance, the IC50, pseudovirus neutralization in assay [8] is > 50 µg/mL. In addition, in [11], the neutralization IC50 is > 50 µg/mL.

As for 2F5 (antibody), the IC90 (neutralization of pseudovirus) in assay [1] is 18.8 µg/mL; in [4] it was 25.3 µg/mL. The IC50 (µg/ml), pseudovirus neutralization in assay [2] is 3.24 µg/mL; in [3], 3.81 µg/mL; in assay [5], 0.66 µg/mL; in assay [6] it was 0.55 µg/mL; in assay [7], 1 µg/mL; in assay [9], > 50 µg/mL. Moreover, the IC50 (µg/ml), pseudovirus neutralization in assay [10] was 1.16 µg/mL; in assay [12], > 50 µg/mL; in assay [13] it was > 50 µg/mL; in [14], > 50 µg/mL; in assay [15], > 50 µg/mL; in assay [16] it was > 50 µg/mL. Further, the IC50, pseudovirus neutralization in assay [8] is > 50 µg/mL. Moreover, in [11], the neutralization IC50 was > 50 µg/mL.
